According to PMC4822156, “Structural basis for ligand-dependent dimerization of phenylalanine hydroxylase regulatory domain” (Scientific Reports, 2016):

Target: the molecule itself
Assay: SEC-MALS; hTH-RD in the absence of amino acid ligand (Supplementary Fig. S2C)

B1: regulatory domain of human tyrosine hydroxylase (hTH-RD), residues 65-160 (domain or fragment, UniProt P07101 96-191, looked up)
chain: GDPLEAVAFEEKEGKAVLNLLFSPRATKPSALSRAVKVFETFEAKIHHLETRPAQRPRAGGPHLEYFVRLEVRRGDLAALLSGVRQVSEDVRSPAG
notes: tyrosine hydroxylase (TH), human, regulatory domain, residues 65-160; which isoform the numbers count on is told only by GenBank number 88900503; Vector pFB-Lic-Bse; source: insect sf9 cells, purified (as the PAH domains); not shown: His6, N-terminal, cleaved
stoichiometry N: 2
